These results are taken from patent US20170362324A1 (Biogen, published 2017).

A word on the EC50: it is the concentration needed to bring the measured effect to its halfway point. For orientation: IC50 means the point on the concentration scale where inhibition reaches its midpoint.

Test [1] concerns the target T1, human αvβ5 expressed on BaF3 cells (stably transfected with human αv and β5 subunits) (human, UniProt P06756 31-1048; P18084 24-799). The test is described as follows: cell-based or functional assay.
The target of test [2] is cynomolgus monkey αvβ5 expressed on BaF3 cells (cynomolgus monkey, UniProt A0A2K5WCD3 31-1048; A0A2K5UEB4 24-799). The test is described as follows: cell-based or functional assay.
Test [3] concerns the target T1, human αvβ5 expressed on BaF3 cells …. The test is described as follows: FACS on BaF3-hu αvβ5 cells. The procedure: FACS Binding Assay: Cells were washed one time in PBS, and then resuspended in FACS buffer (1×PBS, 1% BSA, 1 mM CaCl₂, and 1 mM MgCl₂). 1×10⁶ cells were then incubated on ice for 1 hr in FACS buffer containing the test antibody in a total volume of 50 μl. After incubation, the cells were washed two times with ice cold FACS buffer, resuspended in 50 μl of FACS buffer containing 3 μg/ml goat anti-mouse IgG AlexaFluor488 (Jackson ImmunoResearch), and incubated on ice for 30 min. The cells were then washed twice with ice cold FACS buffer and fixed in 1% PFA overnight. Cell aggregates were removed by filtering through 40 μm filter plates (Millipore) and binding of the labeled secondary antibody was monitored by flow cytometry using a FACS Calibur (BD Biosciences).
(§1) Based on the results described above in Example 4, four humanized ALULA constructs: VH2/VL2, VH4/VL0, VH4/VL2, and VH5/VL2, were selected for further testing. These VH/VL constructs were expressed as fusion proteins with the hybrid, aglycosylated IgG4.P (S228P)/IgG1 (N297Q) domain, and human kappa light chain domain, and purified from the conditioned medium of stably transfected CHO cells. Each humanized ALULA construct was assessed for binding using competition ELISA with murine ALULA and by FACS using human αvβ5-transfected BaF3 cells. Each humanized ALULA construct was also assessed for blocking binding/adhesion to vitronectin by ELISA or cell adhesion assays using BaF3 cells stably transfected with human or cynomolgous monkey αvβ5. The humanized ALULA constructs were compared to a chimeric form of ALULA comprising the murine heavy and light chain variable domains fused to human IgG1 heavy chain and human kappa light chain domains. The four humanized ALULA constructs behaved similarly in the assays, with H4/L2 generally having similar or slightly higher affinity/blocking potency than the other constructs (see, Table 3).

For test [4], the target named is T2, human soluble αvβ5 protein (extracellular domains of human αv and β5 integrin subunits) (human, UniProt P06756 31-992; P18084 24-719).
T2 construct: also called biotin-αvβ5; hsαvβ5
The test is described as follows: αvβ5-vitronectin blocking ELISA. The procedure: Vitronectin Inhibition ELISA: 96-well microtiter plates were coated with 5 μg/ml purified human plasma vitronectin diluted in PBS (50 μl/well) at 4° C. overnight. After the coating solution was removed, the plates were blocked with 300 μl/well of 1% BSA/TBS at 25° C. for 1 hr. The plate was washed with wash buffer (0.05% Tween-20 in TBS containing 1 mM CaCl₂ and 1 mM MgCl₂), and dilutions of humanized antibodies mixed with 1 nM soluble αvβ5 protein in TBS containing 1% BSA, 1 mM CaCl₂ and 1 mM MgCl₂ were added (50 μl/well) and incubated at 25° C. for 1 hr. The plate was washed 4 times with wash buffer in an automated plate washer and incubated sequentially with 50 μl/well of the anti-beta5 monoclonal antibody 15F11 (at 0.5 ug/mL) in for 1 hr at 25° C. in TBS containing 1% BSA, 1 mM CaCl₂ and 1 mM MgCl₂. After washing the plate 4 times with wash buffer, 100 μl/well of a 1:5000 dilution of a peroxidase-conjugated goat anti-mouse antibody in TBS containing 1% BSA, 1 mM CaCl₂ and 1 mM MgCl₂ were added and incubated for 1 hr at 25° C. Bound protein was detected using the TMB substrate and indicated by the absorbency measured at 450 nm.
as §1
Background: ELISA stands for enzyme-linked immunosorbent assay.

The target in test [5] is T2, human soluble αvβ5 protein …. The test is described as follows: ALULA competition ELISA on soluble human αvβ5. The procedure: Competition ELISA: A 96-well microtiter plate was coated with 50 μl/well of 5 μg/mL soluble human αvβ5 protein at 4° C. overnight. The plate was washed with wash buffer (0.05% Tween-20 in PBS) four times in an automated plate washer. 300 μl/well of 1% BSA in PBS was added and incubated for 1 hr at 25° C. to block nonspecific binding. The plate was washed as above, and dilutions of humanized antibodies mixed with 1 nM murine ALULA in PBS containing 1% BSA, were added (50 μl/well). The plate was incubated for 1 hr at 25° C., washed, and then incubated for 40 minutes with 100 μl/well of […] goat anti-mouse antibody. Bound antibody was detected using 3,3′,5,5′-tetramethylbenzidine (TMB). Binding was indicated by the absorbency measured at 450 nm.
as §1

For test [6] the target is unchanged. The test is described as follows: ELISA, purified hsαvβ5 coated at 2 µg/mL, anti-human IgG-HRP detection. The procedure:
Purified hsαvβ5 protein was coated directly on a 96-well ELISA plate at 2 μg/mL, and H4/L2 antibody binding was detected using a horseradish peroxidase conjugated donkey anti-human IgG polyclonal antibody. In this format, the EC₅₀ of the H4/L2 antibody for αvβ5 was about 65 pM.

In test [7] the target is T1, human αvβ5 expressed on BaF3 cells …. The test is described as follows: flow cytometry on BaF3 cells co-transfected with human αv and human β5. The procedure:
The binding of the H4/L2 antibody (SEQ ID NOs.: 69 and 70) to αvβ5 expressed on the cell surface was determined using flow cytometry on BaF3 cells stably co-transfected with human αv and human β5 integrin subunits. BaF3 cells are a murine IL-3 dependent hematopoietic cell line of indeterminate origin. These cells endogenously express mouse alpha-V (as well as alpha-4, alpha-5, and beta-1 integrins) but no beta-5 or beta-6 integrin.
The H4/L2 antibody was added to cells in FACS Buffer (PBS, 1% BSA, 1 mM CaCl₂, 1 mM MgCl₂) for 30 minutes on ice. After washing, bound antibody was detected with an anti-human-Alexa Fluor® 488 secondary antibody. Cells fixed in 1% paraformaldehyde were collected on a FACS Calibur and mean fluorescence intensity was analyzed using FlowJo software.

Test [8] has the same target. The test is described as follows: FACS binding curves on αvβ5-BaF3 cells, 10,000 cells/experiment; mAb (bivalent IgG). The procedure: This experiment was carried out to confirm the affinity of ALULA-H4/L2-IgG4.P(S228P)/IgG1(N297Q) for cell surface expressed αvβ5 stably expressed on murine BaF3 cells. Binding curves were generated using a lower number of cells to ensure that antibody was not simply titrating the receptors on the cell.

T2 sequence (P06756 31-992 limits assumed, chain 1 of 2): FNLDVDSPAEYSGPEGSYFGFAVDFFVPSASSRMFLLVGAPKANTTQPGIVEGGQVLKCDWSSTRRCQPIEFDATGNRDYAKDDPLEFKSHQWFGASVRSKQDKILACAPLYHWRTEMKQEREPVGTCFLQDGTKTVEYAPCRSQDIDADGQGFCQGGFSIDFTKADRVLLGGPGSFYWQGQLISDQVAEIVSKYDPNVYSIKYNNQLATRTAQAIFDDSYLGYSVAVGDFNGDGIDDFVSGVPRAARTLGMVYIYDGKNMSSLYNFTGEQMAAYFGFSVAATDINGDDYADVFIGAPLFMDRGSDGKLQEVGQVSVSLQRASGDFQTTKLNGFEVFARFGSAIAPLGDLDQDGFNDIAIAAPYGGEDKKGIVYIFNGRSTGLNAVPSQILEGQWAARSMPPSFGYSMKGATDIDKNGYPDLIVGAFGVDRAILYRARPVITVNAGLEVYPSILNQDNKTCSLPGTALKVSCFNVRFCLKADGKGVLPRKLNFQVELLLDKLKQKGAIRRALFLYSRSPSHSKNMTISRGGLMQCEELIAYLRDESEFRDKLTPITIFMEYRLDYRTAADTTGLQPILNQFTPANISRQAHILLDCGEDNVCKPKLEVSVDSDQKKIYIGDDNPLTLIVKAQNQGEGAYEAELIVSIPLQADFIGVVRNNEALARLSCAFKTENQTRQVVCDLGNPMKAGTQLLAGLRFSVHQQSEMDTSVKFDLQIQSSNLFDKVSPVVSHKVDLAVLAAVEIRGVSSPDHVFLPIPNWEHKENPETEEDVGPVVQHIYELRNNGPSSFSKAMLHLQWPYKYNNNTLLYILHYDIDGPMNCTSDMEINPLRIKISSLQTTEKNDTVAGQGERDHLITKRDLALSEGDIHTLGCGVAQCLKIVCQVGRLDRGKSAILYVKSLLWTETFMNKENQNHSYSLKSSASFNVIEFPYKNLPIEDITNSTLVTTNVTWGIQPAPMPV
T2 sequence (P18084 24-719 limits assumed, chain 2 of 2): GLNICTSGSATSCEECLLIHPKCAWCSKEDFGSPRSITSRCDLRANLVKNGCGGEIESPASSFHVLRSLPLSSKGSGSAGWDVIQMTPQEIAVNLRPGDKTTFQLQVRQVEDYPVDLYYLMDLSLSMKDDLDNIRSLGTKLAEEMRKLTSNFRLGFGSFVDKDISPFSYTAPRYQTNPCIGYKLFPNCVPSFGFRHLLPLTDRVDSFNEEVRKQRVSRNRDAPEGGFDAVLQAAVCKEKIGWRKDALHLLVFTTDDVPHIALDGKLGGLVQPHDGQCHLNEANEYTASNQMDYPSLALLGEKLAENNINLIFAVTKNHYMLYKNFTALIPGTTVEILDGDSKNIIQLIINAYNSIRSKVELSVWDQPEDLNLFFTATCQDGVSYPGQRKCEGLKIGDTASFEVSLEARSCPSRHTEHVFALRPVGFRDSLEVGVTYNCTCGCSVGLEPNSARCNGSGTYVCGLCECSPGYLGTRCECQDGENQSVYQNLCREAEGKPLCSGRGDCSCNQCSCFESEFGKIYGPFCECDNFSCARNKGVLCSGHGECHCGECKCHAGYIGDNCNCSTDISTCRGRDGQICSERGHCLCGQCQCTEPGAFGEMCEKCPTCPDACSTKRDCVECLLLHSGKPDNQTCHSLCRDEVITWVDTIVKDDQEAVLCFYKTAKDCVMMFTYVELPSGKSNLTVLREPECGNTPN
T1 sequence (P06756 31-1048 limits assumed, chain 1 of 2): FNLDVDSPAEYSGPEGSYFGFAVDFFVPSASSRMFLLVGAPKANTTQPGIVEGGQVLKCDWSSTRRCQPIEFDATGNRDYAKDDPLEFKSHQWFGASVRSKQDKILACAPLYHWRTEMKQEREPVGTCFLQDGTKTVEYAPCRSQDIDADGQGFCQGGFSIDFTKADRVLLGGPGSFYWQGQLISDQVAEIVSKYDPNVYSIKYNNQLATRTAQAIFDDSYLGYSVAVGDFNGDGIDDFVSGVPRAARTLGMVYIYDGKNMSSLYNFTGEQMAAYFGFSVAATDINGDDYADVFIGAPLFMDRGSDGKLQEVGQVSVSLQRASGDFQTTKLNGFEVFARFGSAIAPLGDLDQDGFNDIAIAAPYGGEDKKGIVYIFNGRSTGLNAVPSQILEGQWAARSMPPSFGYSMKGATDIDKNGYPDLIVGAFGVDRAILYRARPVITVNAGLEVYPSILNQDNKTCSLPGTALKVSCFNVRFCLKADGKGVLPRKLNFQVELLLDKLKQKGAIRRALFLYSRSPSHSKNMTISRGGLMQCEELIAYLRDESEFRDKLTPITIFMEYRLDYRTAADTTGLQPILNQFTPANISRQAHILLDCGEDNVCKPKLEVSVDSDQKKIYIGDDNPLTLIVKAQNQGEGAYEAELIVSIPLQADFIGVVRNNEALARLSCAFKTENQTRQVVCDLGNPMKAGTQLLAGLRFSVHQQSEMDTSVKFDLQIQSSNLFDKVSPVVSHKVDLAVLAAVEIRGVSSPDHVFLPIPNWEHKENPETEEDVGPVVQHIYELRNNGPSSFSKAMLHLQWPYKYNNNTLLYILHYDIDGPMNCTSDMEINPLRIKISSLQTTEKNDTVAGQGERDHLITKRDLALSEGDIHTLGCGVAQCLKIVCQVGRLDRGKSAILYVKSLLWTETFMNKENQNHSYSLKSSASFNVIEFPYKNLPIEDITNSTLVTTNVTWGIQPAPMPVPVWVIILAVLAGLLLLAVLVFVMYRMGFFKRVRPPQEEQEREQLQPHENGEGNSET
T1 sequence (P18084 24-799 limits assumed, chain 2 of 2): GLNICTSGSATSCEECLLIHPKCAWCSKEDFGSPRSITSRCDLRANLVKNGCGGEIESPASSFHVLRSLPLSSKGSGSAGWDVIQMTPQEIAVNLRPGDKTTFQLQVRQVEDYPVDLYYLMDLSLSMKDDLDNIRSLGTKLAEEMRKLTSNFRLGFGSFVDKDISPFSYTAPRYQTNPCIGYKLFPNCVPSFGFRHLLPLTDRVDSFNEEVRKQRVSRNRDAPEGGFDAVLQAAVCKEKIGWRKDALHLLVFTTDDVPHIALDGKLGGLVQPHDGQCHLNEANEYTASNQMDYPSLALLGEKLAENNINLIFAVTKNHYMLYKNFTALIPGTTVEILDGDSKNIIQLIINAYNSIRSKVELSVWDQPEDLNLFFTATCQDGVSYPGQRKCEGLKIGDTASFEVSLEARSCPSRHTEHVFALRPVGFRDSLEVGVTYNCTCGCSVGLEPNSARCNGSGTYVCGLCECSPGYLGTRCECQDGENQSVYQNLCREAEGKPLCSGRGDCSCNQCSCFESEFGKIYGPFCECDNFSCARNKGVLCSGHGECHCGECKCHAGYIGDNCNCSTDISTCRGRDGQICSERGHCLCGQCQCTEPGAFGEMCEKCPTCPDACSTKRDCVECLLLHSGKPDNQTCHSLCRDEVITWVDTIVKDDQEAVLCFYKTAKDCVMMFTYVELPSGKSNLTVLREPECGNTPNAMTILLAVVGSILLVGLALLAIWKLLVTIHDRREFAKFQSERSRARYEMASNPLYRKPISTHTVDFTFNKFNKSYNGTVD

B1: ALULA-H4/L2-IgG4.P(S228P)/IgG1(N297Q) (antibody, V domains shown)
VH: EVQVVQSGGGLVKPGESLRLSCKASGYTFTSYWMHWVKQAPGKGLEWVGAIYPGNSDTSYNQKFKGKFTISADTSPNTAYLQMNSLKTEDTAVYYCTTTTYGYDWFAYWGQGTLVTVSS
VL: NIQMTQSPSSLSASVGDRVTMSCKSSQSVLYSSNQKNYLAWYQQKPGKSPKLLIYWASTRESGVPDRFTGSGSGTDFTLTISSLQPEDFATYYCHQYLSSLTFGQGTKLEIKR
notes: Hybrid aglycosylated IgG4.P (S228P)/IgG1 (N297Q) heavy chain, human kappa light chain; also called VH4/VL2 (Agly-IgG4P/G1); H4/L2 antibody
As for B1, in test [1], the “BaF3-hu αvβ5 Cell adhesion to vitronectin (IC50, nM)” value was 0.1 nM and the “BaF3-hu αvβ5 Cell adhesion to vitronectin, Fold chg. (against mouse chimeric ALULA)” value is 0.6 fold. Moreover, in test [2], the “BaF3-cyno αvβ5 Cell adhesion to vitronectin (IC50, nM)” value was 0.32 nM and the “BaF3-cyno αvβ5 Cell adhesion to vitronectin, Fold chg. (against mouse chimeric ALULA)” value is 0.5 fold. Besides, in test [3], the EC50 was found to be 2.92 nM and the “Fold chg. (EC50 against mouse chimeric ALULA)” value was found to be 0.6 fold. In test [4], the “Fold chg. (IC50 against mouse chimeric ALULA)” value was 0.7 fold and the IC50 is 1.06 nM. In addition, in test [5], the “Fold chg. (IC50 against mouse chimeric ALULA)” value is 1 fold and the IC50 was 1.84 nM. In test [6], this molecule returned a half-maximal effective concentration (EC50) of around 0.065 nM. In test [7], this molecule gave a concentration giving a half-maximal response (EC50) of 3 nM. Further, the Kd in test [8] was found to be 0.08 nM.
